This passage reports stoichiometry N results from article PMC8144572.

The target of the experiment is truncated NpSRII/NpHtrII137 complex (Natronomonas pharaonis) (UniProt P42196). Nature of the experiment: SAXS; detergent-solubilised (DDM) complex, peak fractions after gel filtration; low salt (150 mM NaCl); 0.57 mg/ml full-length and 0.78 mg/ml truncated complex; BM29 (ESRF); curves fitted with atomistic dimer models with a detergent belt (MEMPROT, CRYSOL3). A general note: SEC sorts molecules by how far they enter the pores of the column.

Sequence of truncated NpSRII/NpHtrII137 complex (P42196 whole entry, the tested form may be a part): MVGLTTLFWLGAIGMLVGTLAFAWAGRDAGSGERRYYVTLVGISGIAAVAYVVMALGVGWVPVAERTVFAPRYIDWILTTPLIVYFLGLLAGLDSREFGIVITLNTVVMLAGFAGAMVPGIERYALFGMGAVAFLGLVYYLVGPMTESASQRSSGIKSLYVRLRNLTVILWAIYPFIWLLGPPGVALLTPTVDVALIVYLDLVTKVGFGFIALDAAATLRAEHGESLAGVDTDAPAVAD
Sequence of truncated NpSRII/NpHtrII137 complex (P42259 1-136): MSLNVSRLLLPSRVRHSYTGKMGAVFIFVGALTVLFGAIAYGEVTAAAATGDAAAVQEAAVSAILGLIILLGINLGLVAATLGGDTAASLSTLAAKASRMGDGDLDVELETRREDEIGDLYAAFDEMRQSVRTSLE

Take “truncated NpSRII/NpHtrII137 complex (from UniProt P42196 1-239; P42259 1-136)”: the stoichiometry N turned out to be 2.

For orientation: stoichiometry N means a count of units in the complex or per binding partner.
